Patent publication US20060257938A1, “Method of screening for drugs that block ligand binding to a lipid binding protein” (priority 2005, published 2006)
Several values for one entry are separate records, joined by “and”; a condition that tells them apart may be missing. Identical values can stand only once.

Experiments:
Assay type in all cases: binding
[1] = Probe fluorescence ratio response to linoleic acid relative to ADIFAB2; conditions: response relative to ADIFAB2
Procedure, shortened: (§1)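 Each fatty acid's response was expressed relative to ADIFAB2, the rI-FABP-L72A probe, as ΔR/ΔRreference. ΔR is the change in the background-corrected two-wavelength intensity ratio R=Fλ1/Fλ2 from its analyte-free baseline R0. Emission was read near about 420-480 nm for unbound and about 495-580 nm for FFA-bound probe.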

[2] = Probe fluorescence ratio response to arachidonic acid relative to ADIFAB2; conditions: arachidonic acid; response relative to ADIFAB2
Procedure, shortened: as §1

[3] = Probe fluorescence ratio response to oleic acid relative to ADIFAB2; conditions: response relative to ADIFAB2
Procedure, shortened: as §1

[4] = Probe fluorescence ratio response to palmitic acid relative to ADIFAB2; conditions: response relative to ADIFAB2
Procedure, shortened: as §1

[5] = Probe fluorescence ratio response to linolenic acid relative to ADIFAB2; conditions: response relative to ADIFAB2
Procedure, shortened: as §1

B1: 14D, 72A (protein, listed as Rattus norvegicus)
chain: AFDGTWKVDRNENDEKFMEKMGINVVKRKLGAHDNLKLTITQEGNKFTVKESSNFRNIDVVFELGVDFAYSAADGTELTGTWTMEGNKLVGKFKRVDNGKELIAVREISGNELIQTYTYEGVEAKRIFKKE
modifications: PEPTIDE (1)...(131) wild-type rat intestinal fatty acid binding protein
DR/DR LA [1]: 0.53
DR/DR AA [2]: 0.46
DR/DR OA [3]: 0.34
DR/DR PA [4]: 0.28
DR/DR LNA [5]: 0.51

B2: 14G, 72A (protein, listed as Rattus norvegicus)
chain: AFDGTWKVDRNENGEKFMEKMGINVVKRKLGAHDNLKLTITQEGNKFTVKESSNFRNIDVVFELGVDFAYSAADGTELTGTWTMEGNKLVGKFKRVDNGKELIAVREISGNELIQTYTYEGVEAKRIFKKE
modifications: PEPTIDE (1)...(131) wild-type rat intestinal fatty acid binding protein
DR/DR LA [1]: 0.42
DR/DR AA [2]: 0.43
DR/DR OA [3]: 0.24
DR/DR PA [4]: 0.19
DR/DR LNA [5]: 0.46

B3: 14K, 72A (protein, listed as Rattus norvegicus)
chain: AFDGTWKVDRNENKEKFMEKMGINVVKRKLGAHDNLKLTITQEGNKFTVKESSNFRNIDVVFELGVDFAYSAADGTELTGTWTMEGNKLVGKFKRVDNGKELIAVREISGNELIQTYTYEGVEAKRIFKKE
modifications: PEPTIDE (1)...(131) wild-type rat intestinal fatty acid binding protein
DR/DR LA [1]: 1.06
DR/DR AA [2]: 1.08
DR/DR OA [3]: 0.84
DR/DR PA [4]: 0.47
DR/DR LNA [5]: 0.92

B4: 14Q, 72A (protein, listed as Rattus norvegicus)
chain: AFDGTWKVDRNENQEKFMEKMGINVVKRKLGAHDNLKLTITQEGNKFTVKESSNFRNIDVVFELGVDFAYSAADGTELTGTWTMEGNKLVGKFKRVDNGKELIAVREISGNELIQTYTYEGVEAKRIFKKE
modifications: PEPTIDE (1)...(131) wild-type rat intestinal fatty acid binding protein
DR/DR LA [1]: 0.48
DR/DR AA [2]: 0.50
DR/DR OA [3]: 0.29
DR/DR PA [4]: 0.33
DR/DR LNA [5]: 0.52

B5: 14R, 72A (protein, listed as Rattus norvegicus)
chain: AFDGTWKVDRNENREKFMEKMGINVVKRKLGAHDNLKLTITQEGNKFTVKESSNFRNIDVVFELGVDFAYSAADGTELTGTWTMEGNKLVGKFKRVDNGKELIAVREISGNELIQTYTYEGVEAKRIFKKE
modifications: PEPTIDE (1)...(131) wild-type rat intestinal fatty acid binding protein
DR/DR LA [1]: 0.56
DR/DR AA [2]: 0.49
DR/DR OA [3]: 0.26
DR/DR PA [4]: 0.26
DR/DR LNA [5]: 0.51

B6: 14S, 72A (protein, listed as Rattus norvegicus)
chain: AFDGTWKVDRNENSEKFMEKMGINVVKRKLGAHDNLKLTITQEGNKFTVKESSNFRNIDVVFELGVDFAYSAADGTELTGTWTMEGNKLVGKFKRVDNGKELIAVREISGNELIQTYTYEGVEAKRIFKKE
modifications: PEPTIDE (1)...(131) wild-type rat intestinal fatty acid binding protein
DR/DR LA [1]: 0.53
DR/DR AA [2]: 0.46
DR/DR OA [3]: 0.33
DR/DR PA [4]: 0.27
DR/DR LNA [5]: 0.53

B7: 14H, 72A (protein, listed as Rattus norvegicus)
chain: AFDGTWKVDRNENHEKFMEKMGINVVKRKLGAHDNLKLTITQEGNKFTVKESSNFRNIDVVFELGVDFAYSAADGTELTGTWTMEGNKLVGKFKRVDNGKELIAVREISGNELIQTYTYEGVEAKRIFKKE
modifications: PEPTIDE (1)...(131) wild-type rat intestinal fatty acid binding protein
DR/DR LA [1]: 0.45
DR/DR AA [2]: 0.37
DR/DR OA [3]: 0.25
DR/DR PA [4]: 0.17
DR/DR LNA [5]: 0.42

B8: 14F, 72A (protein, listed as Rattus norvegicus)
chain: AFDGTWKVDRNENFEKFMEKMGINVVKRKLGAHDNLKLTITQEGNKFTVKESSNFRNIDVVFELGVDFAYSAADGTELTGTWTMEGNKLVGKFKRVDNGKELIAVREISGNELIQTYTYEGVEAKRIFKKE
modifications: PEPTIDE (1)...(131) wild-type rat intestinal fatty acid binding protein
DR/DR LA [1]: 0.88
DR/DR AA [2]: 0.83
DR/DR OA [3]: 0.72
DR/DR PA [4]: 0.60
DR/DR LNA [5]: 0.88

B9: 14M, 72A (protein, listed as Rattus norvegicus)
chain: AFDGTWKVDRNENMEKFMEKMGINVVKRKLGAHDNLKLTITQEGNKFTVKESSNFRNIDVVFELGVDFAYSAADGTELTGTWTMEGNKLVGKFKRVDNGKELIAVREISGNELIQTYTYEGVEAKRIFKKE
modifications: PEPTIDE (1)...(131) wild-type rat intestinal fatty acid binding protein
DR/DR LA [1]: 0.68 and 0.685
DR/DR AA [2]: 0.62 and 0.619
DR/DR OA [3]: 0.41 and 0.412
DR/DR PA [4]: 0.45 and 0.452
DR/DR LNA [5]: 0.68 and 0.684

B10: 14T, 72A (protein, listed as Rattus norvegicus)
chain: AFDGTWKVDRNENTEKFMEKMGINVVKRKLGAHDNLKLTITQEGNKFTVKESSNFRNIDVVFELGVDFAYSAADGTELTGTWTMEGNKLVGKFKRVDNGKELIAVREISGNELIQTYTYEGVEAKRIFKKE
modifications: PEPTIDE (1)...(131) wild-type rat intestinal fatty acid binding protein
DR/DR LA [1]: 0.76
DR/DR AA [2]: 0.64
DR/DR OA [3]: 0.56
DR/DR PA [4]: 0.36
DR/DR LNA [5]: 1.15

B11: 14E, 72A (protein, listed as Rattus norvegicus)
chain: AFDGTWKVDRNENEEKFMEKMGINVVKRKLGAHDNLKLTITQEGNKFTVKESSNFRNIDVVFELGVDFAYSAADGTELTGTWTMEGNKLVGKFKRVDNGKELIAVREISGNELIQTYTYEGVEAKRIFKKE
modifications: PEPTIDE (1)...(131) wild-type rat intestinal fatty acid binding protein
DR/DR LA [1]: 0.56
DR/DR AA [2]: 0.51
DR/DR OA [3]: 0.41
DR/DR PA [4]: 0.44
DR/DR LNA [5]: 0.61

B12: 14I, 72A (protein, listed as Rattus norvegicus)
chain: AFDGTWKVDRNENIEKFMEKMGINVVKRKLGAHDNLKLTITQEGNKFTVKESSNFRNIDVVFELGVDFAYSAADGTELTGTWTMEGNKLVGKFKRVDNGKELIAVREISGNELIQTYTYEGVEAKRIFKKE
modifications: PEPTIDE (1)...(131) wild-type rat intestinal fatty acid binding protein
DR/DR LA [1]: 0.79 and 0.792
DR/DR AA [2]: 0.57 and 0.572
DR/DR OA [3]: 0.57 and 0.572
DR/DR PA [4]: 0.59 and 0.586
DR/DR LNA [5]: 0.90 and 0.899

B13: 14N, 72A (protein, listed as Rattus norvegicus)
chain: AFDGTWKVDRNENNEKFMEKMGINVVKRKLGAHDNLKLTITQEGNKFTVKESSNFRNIDVVFELGVDFAYSAADGTELTGTWTMEGNKLVGKFKRVDNGKELIAVREISGNELIQTYTYEGVEAKRIFKKE
modifications: PEPTIDE (1)...(131) wild-type rat intestinal fatty acid binding protein
DR/DR LA [1]: 0.49
DR/DR AA [2]: 0.42
DR/DR OA [3]: 0.35
DR/DR PA [4]: 0.32
DR/DR LNA [5]: 0.53

B14: 14P, 72A (protein, listed as Rattus norvegicus)
chain: AFDGTWKVDRNENPEKFMEKMGINVVKRKLGAHDNLKLTITQEGNKFTVKESSNFRNIDVVFELGVDFAYSAADGTELTGTWTMEGNKLVGKFKRVDNGKELIAVREISGNELIQTYTYEGVEAKRIFKKE
modifications: PEPTIDE (1)...(131) wild-type rat intestinal fatty acid binding protein
DR/DR LA [1]: 0.64
DR/DR AA [2]: 0.55
DR/DR OA [3]: 0.58
DR/DR PA [4]: 0.30
DR/DR LNA [5]: 0.64

B15: 102K, 72A (protein, listed as Rattus norvegicus)
chain: AFDGTWKVDRNENYEKFMEKMGINVVKRKLGAHDNLKLTITQEGNKFTVKESSNFRNIDVVFELGVDFAYSAADGTELTGTWTMEGNKLVGKFKRVDNGKEKIAVREISGNELIQTYTYEGVEAKRIFKKE
modifications: PEPTIDE (1)...(131) wild-type rat intestinal fatty acid binding protein
DR/DR LA [1]: 0.55
DR/DR AA [2]: 0.47
DR/DR OA [3]: 0.48
DR/DR PA [4]: 0.23
DR/DR LNA [5]: 0.51

B16: 102I, 72A (protein, listed as Rattus norvegicus)
chain: AFDGTWKVDRNENYEKFMEKMGINVVKRKLGAHDNLKLTITQEGNKFTVKESSNFRNIDVVFELGVDFAYSAADGTELTGTWTMEGNKLVGKFKRVDNGKEIIAVREISGNELIQTYTYEGVEAKRIFKKE
modifications: PEPTIDE (1)...(131) wild-type rat intestinal fatty acid binding protein
DR/DR LA [1]: 1.90 and 1.902
DR/DR AA [2]: 1.46 and 1.461
DR/DR OA [3]: 1.93 and 1.929
DR/DR PA [4]: 1.17 and 1.169
DR/DR LNA [5]: 1.76 and 1.763

B17: 14L, 72A (protein, listed as Rattus norvegicus)
chain: AFDGTWKVDRNENLEKFMEKMGINVVKRKLGAHDNLKLTITQEGNKFTVKESSNFRNIDVVFELGVDFAYSAADGTELTGTWTMEGNKLVGKFKRVDNGKELIAVREISGNELIQTYTYEGVEAKRIFKKE
modifications: PEPTIDE (1)...(131) wild-type rat intestinal fatty acid binding protein
DR/DR LA [1]: 0.87
DR/DR AA [2]: 0.89
DR/DR OA [3]: 0.44
DR/DR PA [4]: 3.07
DR/DR LNA [5]: 0.93
